B1: library; numbered along this chain (parent)
chain: MAAAGGARLLRAASAVLGGPAGRWLHHAGSRAGSSGLLRNRGPGGSAEASRSLSVSARARSSSEDKITVHFINRDGETLTTKGKVGDSLLDVVVENNLDIDGFGACEGTLACSTCHLIFEDHIYEKLDAITDEENDMLDLAYGLTDRSRLGCQICLTKSMDNMTVRVPETVADARQSIDVGKTS

Variants of: B1
Experiment: scaled log2 fold change in cell abundance, elesclomol vs control (0 = silent mean, 1 = nonsense mean) (scaled log2 ratio); higher = higher viability under elesclomol (loss of FDX1 cuproptosis function)
Conditions: glucose 10 mM
[1] = with ABC1 FDX1 KO, elesclomol 5 nM, 14 days
[2] = with HEK293T FDX1 KO, elesclomol 40 nM, 11 days
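Note: variant abundance is its share of total variant reads in each endpoint sample, from next-generation sequencing of the integrated ORF PCR-amplified out of genomic DNA.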

Variant	scaled log2 fold change [1]	scaled log2 fold change [2]
MAAAGGARLLRAASAVLGGPAGRWLHHAGSRAGSSGLLRNRGPGGSAEASRSLSVSARARSSSEDKITVHFINRDGETLTTKGKVGDSLLDVVVENNLMIDGFGACEGTLACSTCHLIFEDHIYEKLDAITDEENDMLDLAYGLTDRSRLGCQICLTKSMDNMTVRVPETVADARQSIDVGKTS [D99M]	-0.0783	0.944
MAAAGGARLLRAASAVLGGPAGRWLHHAGSRAGSSGLLRNRGPGGSAEASRSLSVSARARSSSEDKITVHFINRDGETLTTKGKVGDSLLDVVVENNLRIDGFGACEGTLACSTCHLIFEDHIYEKLDAITDEENDMLDLAYGLTDRSRLGCQICLTKSMDNMTVRVPETVADARQSIDVGKTS [D99R]	-0.084	0.945
MAAAGGARLLRAASAVLGGPAGRWLHHAGSRAGSSGLLRNRGPGGSAEASRSLSVSARARSSSEDKITVHFINRDGETLTTKGKVGDSLLDVVVENNLPIDGFGACEGTLACSTCHLIFEDHIYEKLDAITDEENDMLDLAYGLTDRSRLGCQICLTKSMDNMTVRVPETVADARQSIDVGKTS [D99P]	0.167	-0.37
MAAAGGARLLRAASAVLGGPAGRWLHHAGSRAGSSGLLRNRGPGGSAEASRSLSVSARARSSSEDKITVHFINRDGETLTTKGKVGDSLLDVVVENNLLIDGFGACEGTLACSTCHLIFEDHIYEKLDAITDEENDMLDLAYGLTDRSRLGCQICLTKSMDNMTVRVPETVADARQSIDVGKTS [D99L]	-0.286	-0.152
MAAAGGARLLRAASAVLGGPAGRWLHHAGSRAGSSGLLRNRGPGGSAEASRSLSVSARARSSSEDKITVHFINRDGETLTTKGKVGDSLLDVVVENNLVIDGFGACEGTLACSTCHLIFEDHIYEKLDAITDEENDMLDLAYGLTDRSRLGCQICLTKSMDNMTVRVPETVADARQSIDVGKTS [D99V]	0.0908	-1.19
MAAAGGARLLRAASAVLGGPAGRWLHHAGSRAGSSGLLRNRGPGGSAEASRSLSVSARARSSSEDKITVHFINRDGETLTTKGKVGDSLLDVVVENNLTIDGFGACEGTLACSTCHLIFEDHIYEKLDAITDEENDMLDLAYGLTDRSRLGCQICLTKSMDNMTVRVPETVADARQSIDVGKTS [D99T]	0.182	-0.092
MAAAGGARLLRAASAVLGGPAGRWLHHAGSRAGSSGLLRNRGPGGSAEASRSLSVSARARSSSEDKITVHFINRDGETLTTKGKVGDSLLDVVVENNLNIDGFGACEGTLACSTCHLIFEDHIYEKLDAITDEENDMLDLAYGLTDRSRLGCQICLTKSMDNMTVRVPETVADARQSIDVGKTS [D99N]	-0.0926	-0.216
MAAAGGARLLRAASAVLGGPAGRWLHHAGSRAGSSGLLRNRGPGGSAEASRSLSVSARARSSSEDKITVHFINRDGETLTTKGKVGDSLLDVVVENNLWIDGFGACEGTLACSTCHLIFEDHIYEKLDAITDEENDMLDLAYGLTDRSRLGCQICLTKSMDNMTVRVPETVADARQSIDVGKTS [D99W]	-0.0217	-0.818
MAAAGGARLLRAASAVLGGPAGRWLHHAGSRAGSSGLLRNRGPGGSAEASRSLSVSARARSSSEDKITVHFINRDGETLTTKGKVGDSLLDVVVENNLSIDGFGACEGTLACSTCHLIFEDHIYEKLDAITDEENDMLDLAYGLTDRSRLGCQICLTKSMDNMTVRVPETVADARQSIDVGKTS [D99S]	-0.273	-0.316
MAAAGGARLLRAASAVLGGPAGRWLHHAGSRAGSSGLLRNRGPGGSAEASRSLSVSARARSSSEDKITVHFINRDGETLTTKGKVGDSLLDVVVENNLQIDGFGACEGTLACSTCHLIFEDHIYEKLDAITDEENDMLDLAYGLTDRSRLGCQICLTKSMDNMTVRVPETVADARQSIDVGKTS [D99Q]	0.0501	-1.25
MAAAGGARLLRAASAVLGGPAGRWLHHAGSRAGSSGLLRNRGPGGSAEASRSLSVSARARSSSEDKITVHFINRDGETLTTKGKVGDSLLDVVVENNLYIDGFGACEGTLACSTCHLIFEDHIYEKLDAITDEENDMLDLAYGLTDRSRLGCQICLTKSMDNMTVRVPETVADARQSIDVGKTS [D99Y]	-0.0205	0.198
MAAAGGARLLRAASAVLGGPAGRWLHHAGSRAGSSGLLRNRGPGGSAEASRSLSVSARARSSSEDKITVHFINRDGETLTTKGKVGDSLLDVVVENNLDCDGFGACEGTLACSTCHLIFEDHIYEKLDAITDEENDMLDLAYGLTDRSRLGCQICLTKSMDNMTVRVPETVADARQSIDVGKTS [I100C]	-0.292	0.943
MAAAGGARLLRAASAVLGGPAGRWLHHAGSRAGSSGLLRNRGPGGSAEASRSLSVSARARSSSEDKITVHFINRDGETLTTKGKVGDSLLDVVVENNLDEDGFGACEGTLACSTCHLIFEDHIYEKLDAITDEENDMLDLAYGLTDRSRLGCQICLTKSMDNMTVRVPETVADARQSIDVGKTS [I100E]	0.167	0.099
MAAAGGARLLRAASAVLGGPAGRWLHHAGSRAGSSGLLRNRGPGGSAEASRSLSVSARARSSSEDKITVHFINRDGETLTTKGKVGDSLLDVVVENNLDFDGFGACEGTLACSTCHLIFEDHIYEKLDAITDEENDMLDLAYGLTDRSRLGCQICLTKSMDNMTVRVPETVADARQSIDVGKTS [I100F]	-0.0589	-0.586
MAAAGGARLLRAASAVLGGPAGRWLHHAGSRAGSSGLLRNRGPGGSAEASRSLSVSARARSSSEDKITVHFINRDGETLTTKGKVGDSLLDVVVENNLDADGFGACEGTLACSTCHLIFEDHIYEKLDAITDEENDMLDLAYGLTDRSRLGCQICLTKSMDNMTVRVPETVADARQSIDVGKTS [I100A]	0.162	-0.8
MAAAGGARLLRAASAVLGGPAGRWLHHAGSRAGSSGLLRNRGPGGSAEASRSLSVSARARSSSEDKITVHFINRDGETLTTKGKVGDSLLDVVVENNLDDDGFGACEGTLACSTCHLIFEDHIYEKLDAITDEENDMLDLAYGLTDRSRLGCQICLTKSMDNMTVRVPETVADARQSIDVGKTS [I100D]	0.409	-0.663

From the supplement of paper PMC12855868
